Targets include FcγRIIa-H131 (human) (UniProt P12318); FcγRIIb (human) (UniProt P31994); FcγRIIa-R131 (human) (UniProt P12318).
What all share (assay): method not stated for Table 5; Fc variant against Fcγ receptor

As a reminder, the Kd is the concentration at which binding is half-saturated. Lower therefore signals higher affinity.

Chain of FcγRIIb (human) (P31994 43-217 limits assumed): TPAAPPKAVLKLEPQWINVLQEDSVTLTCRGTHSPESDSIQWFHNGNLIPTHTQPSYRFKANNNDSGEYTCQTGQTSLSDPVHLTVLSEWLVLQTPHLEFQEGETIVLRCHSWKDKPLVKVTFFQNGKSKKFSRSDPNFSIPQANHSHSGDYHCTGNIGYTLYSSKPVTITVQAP
Chain of FcγRIIa-R131 (human) (P12318 34-218 H167R limits assumed): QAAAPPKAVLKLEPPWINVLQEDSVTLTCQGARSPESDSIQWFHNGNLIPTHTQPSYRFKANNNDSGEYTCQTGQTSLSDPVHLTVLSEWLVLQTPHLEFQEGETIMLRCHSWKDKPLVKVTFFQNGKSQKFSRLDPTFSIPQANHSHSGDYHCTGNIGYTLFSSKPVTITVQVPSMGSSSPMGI
Chain of FcγRIIa-H131 (human) (P12318 34-218 limits assumed): as the sequence (P12318 34-218 H167R limits assumed) above, with R134H counted along it

Regarding “IgG1f Fc sequence variant (Table 5) (antibody)”, the Kd with FcγRIIa-H131 (human) came to 530 nM; with FcγRIIb (human), 3900 nM; in the assay with FcγRIIa-R131 (human), 850 nM.

In the assay with FcγRIIb (human), “P238D Fc sequence variant (Table 5) (antibody)” returned an equilibrium dissociation constant (Kd) of 950 nM. This lies in the sub-micromolar range.

Turning to “SE Fc sequence variant (Table 5) (antibody)”, the Kd in the assay with FcγRIIa-H131 (human) came out at 520 nM; in the assay with FcγRIIb (human), 98 nM; with FcγRIIa-R131 (human), 22 nM.

As for “SELF Fc sequence variant (Table 5) (antibody)”, in the assay with FcγRIIa-R131 (human), the Kd is 2 nM.

For the origin of these results see US20180142030A1.
